# Reference: patent US12371675B2, “Process and microorganism for synthesis of adipic acid from carboxylic acids” (THE GOVERNING COUNCIL OF THE UNIVERSITY OF TORONTO, priority 2015, dated 2025)
# B1: EREDCL: 2-enoate reductase (ERED) from Clostridium ljungdahlii DSM 13528 (protein)
# chain: MKNKSLFQPIKIGKMEVKNKISMAPMGAFGLVDNEGCYNQRAIDYYVERAKGGTGLIITSITKVENELDKVVPGIIPVISTNPGRFLMTSSEMTERVHAYGAKIFLQLTMGFGRSGAPGTLLTSQPVSASDIPNYWDPTVTCRALTTSEVEWIVSKFIEGADIAQKADFDGVEIHAVHEGYLLDQFTLSIFNRRTDKYGGDLRGRLQLPIEIVQGIKARLGDDFPVGLRYSVKSCIKDWRQGGLPDEDYLEKGRDLKEGLDAAKILEAAGYDELNTDLGTYDAWYWSHPPIYQKNGLYLPYTKELKKVVKIPVIVAGKLGIPEDAEKALDDKAADMIGLGRPLLADPYWPKKVLSDNSERIRPCIGCHTGCLGRGFEGKPLSCTVNPAVGRERYYEIKPTLTPKKVMVVGGGVAGMEAARIIKMRGHDVTIYEGTDKLGGVIIPGSVPDFKVDDRRLIDWYKSEIKELEVKVNFNTKVTEELVEEEKPDVVIIATGAKEIKINVPGIEKDKVITALELLNDNKKVGNDVLMVGGGLVGCEAALYLAKQGKNVTIVEAKDTLLNSSKPIPHMNKIMLIDLLNMYNVKAITNNSLLEVTDKGAVLINNKFKKQEVSADTVTIAVGFKSDRELYNKLNGNIADLYLIGDAYQSANIMNAIWSANEIGLNC
# Key:
# [1] = Whole-cell anaerobic biotransformation by E. coli expressing EREDs; assay type: cell-based; details: 20 mM 2-hexenedioic acid
# [2] = Whole-cell biotransformation of muconic acid by E. coli expressing EREDs; assay type: cell-based; details: 0.7 mM, 24-hr incubation
# Method: After a 24-hr incubation, no muconic acid or 2-hexenedioic acid were detected in the culture, and a 99% yield of adipic acid was obtained (FIGS. 8a, 8b, and 8c). […] The 3-hexenedioic acid-like compound appears to be an inefficient substrate for these EREDS. This is similar to the mutated 2,4-dienoyl-CoA reductases from E. coli, which catalyze hydrogenation of 2,4-dienoyl CoA into 3-enoyl CoA (Tu, X., Hubbard, P. A., Kim, J. J. P. & Schulz, H. Two distinct proton donors at the active site of Escherichia coli 2,4-dienoyl-CoA reductase are responsible for the formation of different products. Biochemistry 47, 1167-1175 (2008).).
molecule,measurement,setting,value
B1,time to complete conversion of 2-hexenedioic acid to adipic acid,[1],48 h
same,"yield of adipic acid from trans,trans-muconic acid",[2],99%
